Experimental data as given in the supplement of paper PMC9732359.
± gives the uncertainty stated by the source.

Assay: protein stability index of a GFP-peptide fusion (yeast GPS) (PSI 1-4); higher = more stable; sorted into four equal gates, so the index is relative within each strain
Procedure, shortened: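 Tiled 17-residue yeast protein peptides were fused downstream of GFP in a plasmid that also expresses Cherry, and the pooled library was carried in yeast. Mid-log cultures in leucine-free medium were sorted into four equal gates by GFP/Cherry fluorescence ratio, and plasmids from each gate were PCR-amplified and Illumina-sequenced, with reads assigned to strains by barcodes. The protein stability index for each peptide was each gate's read frequency times its gate number, summed.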

| Sequence | protein stability index (doa10∆) | protein stability index (pdr5∆) | protein stability index (san1∆) | protein stability index (ubr1∆) |
| --- | --- | --- | --- | --- |
| INSIDTTESSDLKEGLQ [GRR1] | 2.54 ± 0.062 | 2.6 ± 0.046 | 3.18 ± 0.037 | 3.05 ± 0.032 |
| INSPMPQQAQMQQAQFQ [SNF2] | 2.98 ± 0.093 | 2.98 ± 0.089 | 3.11 ± 0.1 | 2.98 ± 0.083 |
| INSSNEALVQAFAFCIP [YCG1] | 2.18 ± 0.055 | 2.31 ± 0.051 | 2.49 ± 0.059 | 2.09 ± 0.041 |
| INYHQYISKAQNDQWSI [SSN2] | 2.63 ± 0.058 | 2.83 ± 0.053 | 2.56 ± 0.051 | 2.73 ± 0.056 |
| INYLLTLAITTVTNSKF [RPN2] | 2.22 ± 0.062 | 2.91 ± 0.078 | 2.1 ± 0.074 | 2.67 ± 0.067 |
| INYQVDSKLLPKNIEPP [SWI3] | 2.92 ± 0.083 | 2.81 ± 0.1 | 2.58 ± 0.064 | 2.65 ± 0.066 |
| IPGLSAGVNNDNTKESK [RTT102] | 3.59 ± 0.11 | 3.52 ± 0.083 | 3.38 ± 0.071 | 3.35 ± 0.081 |
| IPNIPPNINTWQQVTAL [GAL11] | 2.96 ± 0.14 | 3.15 ± 0.1 | 2.9 ± 0.11 | 2.54 ± 0.12 |
| IPNQEVLQYSDWESDLH [YDL116W/NUP84] | 2.1 ± 0.056 | 2 ± 0.056 | 2.43 ± 0.043 | 2.18 ± 0.057 |
| IPNRRFTLWWSPTINRA [PRP8] | 2.65 ± 0.069 | 2.28 ± 0.065 | 1.65 ± 0.052 | 2.29 ± 0.047 |
| IPSPLSSTKPPGSVNSA [NUT1] | 2.76 ± 0.056 | 2.84 ± 0.058 | 2.86 ± 0.076 | 2.85 ± 0.044 |
| IPTTKNLRLLVEENRVR [DLS1] | – | 3.08 ± 0.1 | 2.87 ± 0.097 | 2.12 ± 0.061 |
| IPVGLMAQENSMERKVQ [MCD1] | – | 3.38 ± 0.29 | – | 3.19 ± 0.1 |
| IQEIKESVELPLTHPEL [RPT2] | 2.7 ± 0.073 | 2.97 ± 0.069 | 2.74 ± 0.068 | 2.75 ± 0.035 |
| IQEQRVKDKQSKVSDDS [RPN8] | 1.97 ± 0.11 | 2.79 ± 0.13 | – | 2.92 ± 0.13 |
| IQGISKMYSDDTLKDIS [BRN1] | 3.24 ± 0.17 | 3.35 ± 0.15 | 3.37 ± 0.15 | 3.05 ± 0.17 |
| IQIDEETENSESIASSN [MCD1] | 2.4 ± 0.071 | 2.73 ± 0.072 | 2.5 ± 0.082 | 2.76 ± 0.051 |
| IQPKITELKKKLDDLEN [SMC1] | 3.11 ± 0.13 | 2.79 ± 0.13 | 3.11 ± 0.14 | 2.71 ± 0.14 |
| IQSKRLRNKIAGYTTHL [RPS17A] | 3.16 ± 0.1 | 3.41 ± 0.088 | 3.23 ± 0.065 | 3.36 ± 0.072 |
| IRAIRKVISEILTKEVQ [RPS1A] | 1.714 ± 0.013 | 1.89 ± 0.012 | 1.83 ± 0.021 | 1.966 ± 0.011 |
| IREIDVAGGKKALAIFV [RPS7A] | 2.29 ± 0.089 | 1.75 ± 0.11 | 1.49 ± 0.17 | 1.77 ± 0.066 |
| IRGSDQAIPKFQMNCYA [RPN2] | 1.27 ± 0.085 | 1.62 ± 0.066 | 1.55 ± 0.13 | 1.47 ± 0.11 |
| IRNINVQDALLTNQLYK [SNF2] | 2.84 ± 0.07 | 2.67 ± 0.064 | 3.12 ± 0.05 | 3.24 ± 0.075 |
| IRNLTVFTMKELAQYMK [RGR1] | 3.04 ± 0.24 | 2.78 ± 0.22 | 2.71 ± 0.2 | 2.79 ± 0.08 |
| IRNVLVTVDQYVNVAIS [SSN2] | 1.21 ± 0.044 | 1.25 ± 0.058 | 1.29 ± 0.089 | 1.39 ± 0.058 |

| Sequence | protein stability index (doa10∆) | protein stability index (pdr5∆) | protein stability index (san1∆) | protein stability index (ubr1∆) |
| --- | --- | --- | --- | --- |
| IRSSSVSLVAEATSNTN [MED4] | 1.89 ± 0.076 | 1.63 ± 0.061 | 2.12 ± 0.098 | 1.33 ± 0.036 |
| IRVAETRGGASALIENN [YJL039C/NUP192] | 2.39 ± 0.071 | 2.46 ± 0.089 | 3.1 ± 0.072 | 2.89 ± 0.055 |
| ISDIPYVISLSYTDAQD [YMR129W/POM152] | 2.16 ± 0.066 | 2.41 ± 0.068 | 2.5 ± 0.061 | 2.64 ± 0.06 |
| ISFAAFILADAGLEITS [RPP1B] | 1.98 ± 0.063 | 1.8 ± 0.055 | 2.03 ± 0.23 | 1.9 ± 0.076 |
| ISLHENKLSGILADEMG [ISW2] | 2.81 ± 0.085 | 2.16 ± 0.069 | 2.71 ± 0.084 | 2.44 ± 0.1 |
| ISLRNNHKIIARVKAFD [SMD2] | 1.79 ± 0.044 | 2.02 ± 0.038 | 2.49 ± 0.051 | 2 ± 0.041 |
| ISNINIPISSETTIDDL [SMC1] | – | 2.69 ± 0.17 | – | 1.85 ± 0.071 |
| ISNNLALVFAALEHLKN [SRP68] | 1.95 ± 0.051 | 1.8 ± 0.041 | 2.12 ± 0.052 | 2.09 ± 0.041 |
| ISPLMKSQYNMVLRNVM [SRB8] | 2.32 ± 0.068 | 2.12 ± 0.12 | 2.79 ± 0.1 | 2.84 ± 0.11 |
| ISSLIGGFEYFLQPLLL [NUT1] | 1.21 ± 0.058 | 1.27 ± 0.08 | 1.33 ± 0.16 | 1.38 ± 0.19 |
| ITGNKIMRILKSNGLAP [RPS13] | 3.01 ± 0.14 | 3.32 ± 0.18 | 2.53 ± 0.16 | 2.91 ± 0.057 |
| ITHQGANSESGHYQAFI [UBP6] | 3.04 ± 0.19 | 2.95 ± 0.08 | 3.16 ± 0.071 | 3.05 ± 0.079 |
| ITHYAVRGGNIEIMGIL [RRI1] | 2.85 ± 0.1 | 2.54 ± 0.097 | 2.79 ± 0.095 | 2.25 ± 0.13 |
| ITIDSVVDANGCVNSLI [YMR129W/POM152] | 3.01 ± 0.11 | 2.91 ± 0.09 | 3.05 ± 0.055 | 2.8 ± 0.06 |
| ITLHPSFFGPRMKQYLK [RPB7] | 2.41 ± 0.12 | 2.47 ± 0.12 | 1.75 ± 0.21 | 2.02 ± 0.061 |
| ITSNHKSSVPGSAELRN [RPN3] | 2.69 ± 0.087 | 3.25 ± 0.074 | 2.67 ± 0.069 | 2.63 ± 0.08 |
| IVDPTAEQLKISLSVHT [RRP46] | 1.64 ± 0.042 | 1.81 ± 0.044 | 2.34 ± 0.057 | 2.04 ± 0.043 |
| IVFVHSRKETSRTATWL [BRR2] | 2.53 ± 0.11 | 2.67 ± 0.12 | 2.57 ± 0.21 | 2.89 ± 0.077 |
| IVIDVDYNKKQDRIQDV [MED1] | 3.16 ± 0.15 | 3.13 ± 0.091 | 2.99 ± 0.094 | 3.09 ± 0.077 |
| IVKTSSGNEMPPQDAEG [RPS19A] | 2.3 ± 0.25 | 3.46 ± 0.29 | – | – |
| IVNGQTFSYVDSSLQPE [YMR129W/POM152] | 2.47 ± 0.05 | 2.67 ± 0.059 | 2.62 ± 0.052 | 2.06 ± 0.042 |
| IVNVLSKCLNLISDSNI [SWI3] | 2.05 ± 0.043 | 1.77 ± 0.038 | 1.65 ± 0.073 | 2 ± 0.029 |
| IVPLHSPFLMGHPMTKS [SEC65] | 2.76 ± 0.083 | 2.57 ± 0.07 | 2.57 ± 0.079 | 2.79 ± 0.055 |
| IVSKEYEKNFEATLESK [ESC2] | 2.98 ± 0.24 | 3.08 ± 0.17 | 2.9 ± 0.088 | 2.88 ± 0.18 |
| IVVMDCFNLPVVGTETR [RRI1] | 2.24 ± 0.13 | 2.66 ± 0.12 | 2.29 ± 0.17 | – |

| Sequence | protein stability index (doa10∆) | protein stability index (pdr5∆) | protein stability index (san1∆) | protein stability index (ubr1∆) |
| --- | --- | --- | --- | --- |
| IWDSQKFFIMIVKGNII [POP4] | 1.37 ± 0.069 | 1.44 ± 0.096 | 1.38 ± 0.15 | 1.32 ± 0.083 |
| IWRKVPGDVLDKDAFIP [SNU114] | 3.6 ± 0.28 | – | – | – |
| IYDDWLDRISSYTAFSR [PRP8] | 2.16 ± 0.05 | 1.75 ± 0.044 | 1.92 ± 0.073 | 2.24 ± 0.039 |
| IYKPLLFEIVSNADTNQ [SRB8] | 1.71 ± 0.06 | 2.11 ± 0.066 | 2.33 ± 0.09 | 1.49 ± 0.078 |
| IYKSIFNVVDVGVDQLS [YJL039C/NUP192] | 3.11 ± 0.055 | 2.92 ± 0.047 | 3.05 ± 0.041 | 3.05 ± 0.042 |
| IYNKMIGVLNNSSESDE [RPN13] | 2.74 ± 0.14 | 3.12 ± 0.12 | 2.94 ± 0.06 | 2.94 ± 0.067 |
| IYQHLASHNEKDQDSQI [SRP72] | 2.58 ± 0.092 | 2.45 ± 0.074 | 2.53 ± 0.12 | 2.78 ± 0.099 |
| IYQVPEKDLEHWLQLAK [POP1] | 3.22 ± 0.12 | 3.13 ± 0.13 | 3.42 ± 0.091 | 3.1 ± 0.099 |
| IYRDRSTFTKHLIKCFF [ITC1] | 2.11 ± 0.043 | 1.68 ± 0.038 | 2.21 ± 0.046 | 2.26 ± 0.031 |
| IYRYKYKVMHQIRACKD [PRP8] | 2.56 ± 0.099 | 2.14 ± 0.086 | 2.45 ± 0.078 | 1.99 ± 0.088 |
| IYSPEGLRLDGRRWNEL [SKI6] | 1.42 ± 0.16 | 1.77 ± 0.19 | – | – |
| KAAFLGSEVRLRDDTLP [COR1] | 2.54 ± 0.06 | 2.98 ± 0.057 | 2.93 ± 0.061 | 2.68 ± 0.05 |
| KAALERLKVFEGIPPPY [RPL16A] | 2.57 ± 0.096 | 2.84 ± 0.12 | 3.09 ± 0.092 | 2.69 ± 0.085 |
| KAELPQWYTLQSQLNVT [MED8] | 2.77 ± 0.055 | 2.9 ± 0.047 | 2.8 ± 0.05 | 2.69 ± 0.056 |
| KAHPNFPIALQWTGGRG [FAS1] | 2.62 ± 0.13 | 2.64 ± 0.12 | 2.2 ± 0.096 | 2.01 ± 0.092 |
| KAKIIPGNGKHASENIS [SIR4] | 2.61 ± 0.11 | 3.04 ± 0.13 | 2.67 ± 0.13 | 2.81 ± 0.12 |
| KAKRQINSGTNSANGSS [SSN3] | 2.52 ± 0.057 | 2.68 ± 0.058 | 2.92 ± 0.057 | 2.91 ± 0.046 |
| KALILAPTRELVQQIQK [PRP28] | 2.67 ± 0.087 | 2.82 ± 0.055 | 2.75 ± 0.073 | 3 ± 0.069 |
| KANISLETLEHNGAPHH [RPO21] | 3.29 ± 0.16 | 3.05 ± 0.15 | 3.19 ± 0.12 | – |
| KAPEAEQVLSAAATFPI [RPL13A] | 2.97 ± 0.071 | 2.76 ± 0.075 | 2.96 ± 0.078 | 2.81 ± 0.04 |
| KASELKLALGIALEGYR [RPN2] | 2.62 ± 0.15 | 2.28 ± 0.18 | – | 2.56 ± 0.097 |
| KASTISRGAVSGQKAGL [RPL2A] | 2.46 ± 0.044 | 2.36 ± 0.055 | 2.67 ± 0.055 | 2.87 ± 0.046 |
| KASVLEISPQDSIASVL [GAL11] | 3.27 ± 0.09 | 3.39 ± 0.066 | 3.13 ± 0.083 | 3.13 ± 0.086 |
| KDFLKAVDKVISGYKKF [RPT1] | 3.21 ± 0.074 | 3.38 ± 0.09 | 3.12 ± 0.092 | 3.33 ± 0.051 |
| KDHLLLEEEFVSNSEIL [RPT2] | 2.87 ± 0.09 | 2.83 ± 0.065 | 2.83 ± 0.066 | 2.74 ± 0.078 |
